Assay results taken from PMC11531485, “Examining prestructured β-actin peptides as substrates of histidine methyltransferase SETD3” (Scientific Reports, 2024).
Positions of bridges follow the written chain, without caps; N, C: chain ends. No end group written: not given here.

Legend:
[1] = biological target: T1, human SETD3 histidine methyltransferase (human, UniProt Q86TU7 1-594); assay: cell-based or functional assay
T1 sequence (looked up): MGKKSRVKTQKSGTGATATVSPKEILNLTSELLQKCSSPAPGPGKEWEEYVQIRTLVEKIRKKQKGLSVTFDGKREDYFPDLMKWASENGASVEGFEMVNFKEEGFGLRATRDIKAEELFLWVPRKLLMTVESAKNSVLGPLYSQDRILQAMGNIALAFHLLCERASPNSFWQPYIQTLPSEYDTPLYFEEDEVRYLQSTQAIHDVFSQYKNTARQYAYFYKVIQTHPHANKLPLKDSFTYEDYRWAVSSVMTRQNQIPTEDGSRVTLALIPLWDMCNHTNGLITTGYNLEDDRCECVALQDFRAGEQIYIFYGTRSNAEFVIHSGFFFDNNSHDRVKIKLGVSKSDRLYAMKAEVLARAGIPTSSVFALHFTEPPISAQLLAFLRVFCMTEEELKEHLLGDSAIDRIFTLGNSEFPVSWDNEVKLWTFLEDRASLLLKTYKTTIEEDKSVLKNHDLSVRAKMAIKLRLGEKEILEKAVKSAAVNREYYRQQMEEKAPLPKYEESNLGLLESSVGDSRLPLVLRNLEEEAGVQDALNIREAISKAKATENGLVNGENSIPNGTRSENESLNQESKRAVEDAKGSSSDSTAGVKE

[2] = biological target: T1, human SETD3 histidine methyltransferase; assay: ITC; βA peptides (700-850 µM) titrated into SETD3 (30 µM) preincubated with SAH (350 µM) for 1 h; 20 mM Tris, 200 mM NaCl, pH 8.0; MicroCal PEAQ-ITC; One Set of Sites model; settings: both partners purified
[3] = biological target: T1, human SETD3 histidine methyltransferase; assay: cell-based or functional assay; remark: listed apart in the source

TLKYPIEHGKVTNWDD-NH2 (lactam 7-10) [stapled βA peptide 9 (cyclic lactam, Glu72-Lys75)]
IC50 of inhibition of SETD3-catalysed methylation of the βA-H73 peptide, MALDI-TOF MS single point assay (10 and 100 µM peptide, 360 nM SETD3, 100 µM SAM) [1]: > 100 µM
Kd [2]: 24 µM

TLKYPIEHGIVTNWDD-NH2 [linear β-actin peptide (βA-H73, natural sequence)]
kcat of SETD3-catalysed methylation, MALDI-TOF MS steady-state kinetics (200 nM SETD3, 100 µM SAM, pH 9.0, 37 °C) [3]: 148 min^-1
kcat/Km of SETD3-catalysed methylation, MALDI-TOF MS steady-state kinetics (200 nM SETD3, 100 µM SAM, pH 9.0, 37 °C) [3]: 5.78 µM^-1min^-1
Kd [2]: 2.46 µM
